From patent US10487116B2, “Immunotherapy against several tumors, such as lung cancer, including NSCLC” (IMMATICS BIOTECHNOLOGIES GMBH, priority 2013, dated 2019)

Columns and labels:
[1] = system: CD8+ T cells; assay: In vitro T-cell priming assay (aAPCs loaded with peptide/MHC and anti-CD28, pMHC multimer readout); assay type: cell-based, human; settings: in vitro immunogenicity, trifluoro-acetate salts of the peptides; for Wells: positive wells; for Donors: responding healthy donors
Source text: In order to obtain information regarding the immunogenicity of the TUMAPs of the present invention, we performed investigations using an in vitro T-cell priming assay based on repeated stimulations of CD8+ T cells with artificial antigen presenting cells (aAPCs) loaded with peptide/MHC complexes and anti-CD28 antibody.
In order to perform in vitro stimulations by artificial antigen presenting cells loaded with peptide-MHC complex (pMHC) and anti-CD28 antibody, we first isolated CD8+ T cells from fresh HLA-A*02 leukapheresis products via positive selection using CD8 microbeads (Miltenyi Biotec, Bergisch-Gladbach, Germany) of healthy donors obtained from the Transfusion Medicine Tuebingen, Germany, after informed consent.
Isolated CD8+ lymphocytes or PBMCs were incubated until use in T-cell medium (TCM) consisting of RPMI-Glutamax (Invitrogen, Karlsruhe, Germany) supplemented with 10% heat inactivated human AB serum (PAN-Biotech, Aidenbach, Germany), 100 U/ml Penicillin/100 μg/ml Streptomycin (Cambrex, Cologne, Germany), 1 mM sodium pyruvate (CC Pro, Oberdorla, Germany), 20 μg/ml Gentamycin (Cambrex). 2.5 ng/ml IL-7 (PromoCell, Heidelberg, Germany) and 10 U/ml IL-2 (Novartis Pharma, Nurnberg, Germany) were also added to the TCM at this step.
Generation of pMHC/anti-CD28 coated beads, T-cell stimulations and readout was performed in a highly defined in vitro system using four different pMHC molecules per stimulation condition and 8 different pMHC molecules per readout condition.
All pMHC complexes used for aAPC loading and cytometric readout were derived from UV-induced MHC ligand exchange (Rodenko et al., 2006) with minor modifications. In order to determine the amount of pMHC monomer obtained by exchange we performed streptavidin-based sandwich ELISAs according to (Rodenko et al., 2006).
The purified co-stimulatory mouse IgG2a anti human CD28 Ab 9.3 (Jung et al., 1987) was chemically biotinylated using Sulfo-N-hydroxysuccinimidobiotin as recommended by the manufacturer (Perbio, Bonn, Germany). Beads used were 5.6 μm diameter streptavidin coated polystyrene particles (Bangs Laboratories, Ill., USA).
pMHC used for positive and negative control stimulations were A*0201/MLA-001 (peptide […] from modified Melan-A/MART-1) and A*0201/DDX5-001 ([…] from DDX5), respectively.
800.000 beads/200 μl were coated in 96-well plates in the presence of 4×12.5 ng different biotin-pMHC, washed and 600 ng biotin anti-CD28 were added subsequently in a volume of 200 μl. Stimulations were initiated in 96-well plates by co-incubating 1×10^6 CD8+ T cells with 2×10^5 washed coated beads in 200 μl TCM supplemented with 5 ng/ml IL-12 (PromoCell) for 3-4 days at 37° C. Half of the medium was then exchanged by fresh TCM supplemented with 80 U/ml IL-2 and incubating was continued for 3-4 days at 37° C. This stimulation cycle was performed for a total of three times. For the pMHC multimer readout using 8 different pMHC molecules per condition, a two-dimensional combinatorial coding approach was used as previously described (Andersen et al., 2012) with minor modifications encompassing coupling to 5 different fluorochromes. Finally, multimeric analyses were performed by staining the cells with Live/dead near IR dye (Invitrogen, Karlsruhe, Germany), CD8-FITC antibody clone SK1 (BD, Heidelberg, Germany) and fluorescent pMHC multimers. For analysis, a BD LSRII SORP cytometer equipped with appropriate lasers and filters was used. Peptide specific cells were calculated as percentage of total CD8+ cells. Evaluation of multimeric analysis was done using the FlowJo software (Tree Star, Oreg., USA). In vitro priming of specific multimer+CD8+ lymphocytes was detected by comparing to negative control stimulations.

[2] = biological target: HLA-A*0201 (Homo sapiens, UniProt P04439, D140Y/D185E/D98H/E176V/E277Q/G131W/G231S/I119V/I121R/I166T/I218V/L300P/L318F/N151K/N90K/P208A/P217A/Q86G/Q94H/R138H/R169H/T345S); assay: UV-ligand exchange with ELISA of stabilized MHC complexes; assay type: binding; settings: class symbol
Source text: Candidate peptides for the vaccines according to the present invention were further tested for immunogenicity by in vitro priming assays. The individual peptide-MHC complexes required for these assays were produced by UV-ligand exchange, where a UV-sensitive peptide is cleaved upon UV-irradiation, and exchanged with the peptide of interest as analyzed. Only peptide candidates that can effectively bind and stabilize the peptide-receptive MHC molecules prevent dissociation of the MHC complexes. To determine the yield of the exchange reaction, an ELISA was performed based on the detection of the light chain (β2m) of stabilized MHC complexes. The assay was performed as generally described in Rodenko et al. (Rodenko B, Toebes M, Hadrup S R, van Esch W J, Molenaar A M, Schumacher T N, Ovaa H. Generation of peptide-MHC class I complexes through UV-mediated ligand exchange. Nat Protoc. 2006; 1(3):1120-32.).
96 well MAXISorp plates (NUNC) were coated over night with 2 ug/ml streptavidin in PBS at room temperature, washed 4× and blocked for 30 min at 37° C. in 2% BSA containing blocking buffer. Refolded HLA-A*0201/MLA-001 monomers served as standards, covering the range of 8-500 ng/ml. Peptide-MHC monomers of the UV-exchange reaction were diluted 100 fold in blocking buffer. Samples were incubated for 1 h at 37° C., washed four times, incubated with 2 ug/ml HRP conjugated anti-β2m for 1 h at 37° C., washed again and detected with TMB solution that is stopped with […]. Absorption was measured at 450 nm.

| Substance | Exchange yield [2] | Wells [1] | Donors [1] |
| --- | --- | --- | --- |
| 70 (KILEDVVGV; listed as Homo sapiens) [compound 70] |  | + (<20% = +) | +++ (50%-70%, +++) |
| 71 (KLLEYIEEI; listed as Homo sapiens) [compound 71] |  | + (<20% = +) | +++ (50%-70%, +++) |
| 72 (KLLTEVHAA; listed as Homo sapiens) [compound 72] |  | + (<20% = +) | +++ (50%-70%, +++) |
| 73 (FLLDGSANV; listed as Homo sapiens) [compound 73] |  | + (<20% = +) | ++ (20%-49% = ++) |
| 74 (SLLAQNTSWLL; listed as Homo sapiens) [compound 74] |  | + (<20% = +) | +++ (50%-70%, +++) |
| 75 (ALYDSVILL; listed as Homo sapiens) [compound 75] |  | + (<20% = +) | ++ (20%-49% = ++) |
| 78 (SLYDNQITTV; listed as Homo sapiens) [compound 78] |  | ++ (20%-49% = ++) | ++ (20%-49% = ++) |
| 79 (SLAPAGVIRV; listed as Homo sapiens) [compound 79] |  | + (<20% = +) | ++++ (>70 = ++++) |
| 80 (SLFGNSGILENV; listed as Homo sapiens) [compound 80] |  | + (<20% = +) | ++ (20%-49% = ++) |
| 81 (ALYGRLEVV; listed as Homo sapiens) [compound 81] |  | + (<20% = +) | ++ (20%-49% = ++) |
| 85 (KIVDFSYSV; listed as Homo sapiens) [compound 85] |  | ++ (20%-49% = ++) | ++++ (>70 = ++++) |
| 86 (AMATESILHFA; listed as Homo sapiens) [compound 86] |  | + (<20% = +) | ++ (20%-49% = ++) |
| 87 (RVLPPSALQSV; listed as Homo sapiens) [compound 87] |  | + (<20% = +) | +++ (50%-70%, +++) |
| 88 (SLLESNKDLLL; listed as Homo sapiens) [compound 88] |  | + (<20% = +) | ++ (20%-49% = ++) |
| 92 (HLLEDIAHV; listed as Homo sapiens) [compound 92] |  | + (<20% = +) | ++ (20%-49% = ++) |
| ALDENLHQL (listed as Homo sapiens) [SEQ ID NO 3] | ++ (20%-49% = ++) |  |  |
| ALMDKEGLTAL (listed as Homo sapiens) [SEQ ID NO 9] | ++++ (>70 = ++++) |  |  |
| AVVEFLTSV (listed as Homo sapiens) [SEQ ID NO 19] | +++ (50%-70%, +++) |  |  |
| FQYDHEAFL (listed as Homo sapiens) [SEQ ID NO 14] | ++++ (>70 = ++++) |  |  |
| ILFEINPKL (listed as Homo sapiens) [SEQ ID NO 1] | ++++ (>70 = ++++) |  |  |

The next lines start with results.

| Exchange yield [2] | Substance | Wells [1] | Donors [1] |
| --- | --- | --- | --- |
| ++ (20%-49% = ++) | AIDGNNHEV (listed as Homo sapiens) [SEQ ID NO 31] |  |  |
| ++ (20%-49% = ++) | AILDTLYEV (listed as Homo sapiens) [SEQ ID NO 21] |  |  |
| + (<20% = +) | AIMGFIGFFV (listed as Homo sapiens) [SEQ ID NO 45] |  |  |
| +++ (50%-70%, +++) | ALANQKLYSV (listed as Homo sapiens) [SEQ ID NO 83] |  |  |
| +++ (50%-70%, +++) | ALASVIKEL (listed as Homo sapiens) [SEQ ID NO 89] |  |  |
| +++ (50%-70%, +++) | ALFPHLLQPV (listed as Homo sapiens) [SEQ ID NO 43] |  |  |
| ++++ (>70 = ++++) | ALLRTVVSV (listed as Homo sapiens) [SEQ ID NO 33] |  |  |
| ++ (20%-49% = ++) | ALVDHTPYL (listed as Homo sapiens) [SEQ ID NO 20] |  |  |
| +++ (50%-70%, +++) | ALWEKNTHL (listed as Homo sapiens) [SEQ ID NO 82] |  |  |
| ++ (20%-49% = ++) | ALYDSVILL (listed as Homo sapiens) [SEQ ID NO 75] |  |  |
| ++++ (>70 = ++++) | ALYGRLEVV (listed as Homo sapiens) [SEQ ID NO 81] |  |  |
| +++ (50%-70%, +++) | AMATESILHFA (listed as Homo sapiens) [SEQ ID NO 86] |  |  |
| +++ (50%-70%, +++) | AMFENFVSV (listed as Homo sapiens) [SEQ ID NO 91] |  |  |
| ++ (20%-49% = ++) | AMLAVLHTV (listed as Homo sapiens) [SEQ ID NO 64] |  |  |
| ++ (20%-49% = ++) | AMSSKFFLV (listed as Homo sapiens) [SEQ ID NO 69] |  |  |
| +++ (50%-70%, +++) | FLHHLEIEL (listed as Homo sapiens) [SEQ ID NO 23] |  |  |
| +++ (50%-70%, +++) | FLIPIYHQV (listed as Homo sapiens) [SEQ ID NO 22] |  |  |
| ++++ (>70 = ++++) | FLLDGSANV (listed as Homo sapiens) [SEQ ID NO 73] |  |  |
| +++ (50%-70%, +++) | FLVDGSWSV (listed as Homo sapiens) [SEQ ID NO 24] |  |  |
| ++ (20%-49% = ++) | GLAEDIDKGEV (listed as Homo sapiens) [SEQ ID NO 57] |  |  |
| +++ (50%-70%, +++) | GLIEIISNA (listed as Homo sapiens) [SEQ ID NO 48] |  |  |
| +++ (50%-70%, +++) | GLTDNIHLV (listed as Homo sapiens) [SEQ ID NO 40] |  |  |
| +++ (50%-70%, +++) | GLYPDAFAPV (listed as Homo sapiens) [SEQ ID NO 25] |  |  |
| ++++ (>70 = ++++) | GVLENIFGV (listed as Homo sapiens) [SEQ ID NO 47] |  |  |
| ++ (20%-49% = ++) | HLLEDIAHV (listed as Homo sapiens) [SEQ ID NO 92] |  |  |
| ++++ (>70 = ++++) | ILFPDIIARA (listed as Homo sapiens) [SEQ ID NO 62] |  |  |
| ++ (20%-49% = ++) | ILMGTELTQV (listed as Homo sapiens) [SEQ ID NO 84] |  |  |
| ++ (20%-49% = ++) | ILQDRLNQV (listed as Homo sapiens) [SEQ ID NO 67] |  |  |
| ++++ (>70 = ++++) | ILVSWLPRL (listed as Homo sapiens) [SEQ ID NO 59] |  |  |
| +++ (50%-70%, +++) | KILEDVVGV (listed as Homo sapiens) [SEQ ID NO 70] |  |  |
